Laboratory results as given in patent US10201282B2 (The Regents of the University of California, priority 2014, dated 2019).

Biological target: T1, TEV protease (Tobacco etch virus, UniProt P04517)
T1 construct: With co-expression of the TEV protease; expressed in transfected cells; host or cells: HEK293 / HEK293T
Assay: iTEV (EK) coiled-coil sensor in HEK293 cells without or with TEV protease
Assay type: cell-based
Source text: HEK293 cells were transfected with the iTEV (EK) sensor without (top two panels) or with (bottom two panels) TEV protease.
For example, heterodimeric coiled coils were used to replace split GFP in iTEV (De Crescenzo, G., Litowski, J. R., Hodges, R. S. & O'Connor-McCourt, M. D. Real-Time Monitoring of the Interactions of Two-Stranded de NovoDesigned Coiled-Coils: Effect of Chain Length on the Kinetic and Thermodynamic Constants of Binding †. Biochemistry 42, 1754-1763 (2003)).

T1 sequence (P04517 2038-2279): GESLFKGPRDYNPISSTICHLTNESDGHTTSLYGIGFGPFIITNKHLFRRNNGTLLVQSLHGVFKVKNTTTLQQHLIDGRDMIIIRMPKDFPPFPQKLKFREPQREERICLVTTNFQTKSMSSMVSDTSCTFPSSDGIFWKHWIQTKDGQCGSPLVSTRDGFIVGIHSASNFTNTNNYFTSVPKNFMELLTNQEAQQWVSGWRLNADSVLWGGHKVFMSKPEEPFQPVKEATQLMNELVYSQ

B1: iTEV (EK) (protein)
chain: MGGSKVSALKEKVSALKEKVSALKEKVSALKEKVSALKEGGSGSTTNIAPALDGAFHRITSSSSLMGLCDETATIIREITGYDRVMVVRFDEEGNGEILSERRRADLEAFLGNRYPASTIPQIARRLYEHNRVRLLVDVNYTPVPLQPRISPLNGRDLDMSLSCLRSMSPIHQKYMQDMGVGATLVCSLMVSGRLWGLIACHHYEPRFVPFHIRAAGEALAETCAIRIATLESENLYFQSEFCEREQIHLAGSIQPHGILLAVKEPDNVVIQASINAAEFLNTNSVVGRPLRDLGGDLPLQILPHLNGPLHLAPMTLRCTVGSPPRRVDCTIHRPSNGGLIVELEPATKLEGGGSGGSEVSALEKEVSALEKEVSALEKEVSALEKEVSALEK
modifications: (Amino acid sequence of iTEV(+) 5.1)
**Q.** Which results are given for B1?
**A.** infrared fluorescence (TEV protease co-expressed): becomes infrared fluorescent; infrared fluorescence (without TEV protease): not infrared fluorescent
